These results are taken from PMC9482650, “Quantitative fragmentomics allow affinity mapping of interactomes” (Nature Communications, 2022).

Targets include AHNAK1, Q09666; DLG1_3, Q12959; DLG2_3, Q15700; GOPC, Q9HD26; GORASP1, Q9BQQ3; GRID2IP_2, A4D2P6; GRIP2_6, Q9C0E4; GRIP2_7, Q9C0E4; Inadl_8, Q8NI35; Inadl_9, Q8NI35; MAGI1_1, Q96QZ7; PARD3_3, Q8TEW0.
Common to all, as to assay: holdup assay
Common to all, as to design: key: below the threshold = too weak to quantify, mostly under pKd 3.1 to 4

The target in another experiment is T1, APBA1_1, Q02410.
T1 sequence (Q02410 651-752, limits assumed, looked up): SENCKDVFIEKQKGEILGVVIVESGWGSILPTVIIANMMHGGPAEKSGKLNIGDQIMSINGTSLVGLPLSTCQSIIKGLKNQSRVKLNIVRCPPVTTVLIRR

The target of a further experiment is T2, APBA2_1, Q99767.
T2 sequence (Q99767 563-664, limits assumed, looked up): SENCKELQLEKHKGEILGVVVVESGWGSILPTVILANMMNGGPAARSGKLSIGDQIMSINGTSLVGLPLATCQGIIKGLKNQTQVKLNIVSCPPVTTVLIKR

In the next experiment the target is T3, APBA3_1, O96018.
T3 sequence (O96018 389-490, limits assumed, looked up): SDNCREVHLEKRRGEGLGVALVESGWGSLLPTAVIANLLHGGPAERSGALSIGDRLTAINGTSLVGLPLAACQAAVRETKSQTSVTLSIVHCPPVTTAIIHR

In the next experiment the target is T4, GRIP1_2, Q9Y3R0.
T4 sequence (Q9Y3R0 145-248, limits assumed, looked up): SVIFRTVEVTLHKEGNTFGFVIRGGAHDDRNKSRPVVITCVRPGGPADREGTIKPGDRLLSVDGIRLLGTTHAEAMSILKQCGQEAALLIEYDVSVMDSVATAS

The target of the next experiment is T5, GRIP1_5, Q9Y3R0.
T5 sequence (Q9Y3R0 568-668, limits assumed, looked up): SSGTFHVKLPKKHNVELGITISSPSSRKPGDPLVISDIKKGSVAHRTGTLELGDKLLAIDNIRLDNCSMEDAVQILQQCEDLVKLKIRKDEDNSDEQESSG

The next experiment has as its target T6, MPDZ_5, O75970.
T6 sequence (O75970 695-796, limits assumed, looked up): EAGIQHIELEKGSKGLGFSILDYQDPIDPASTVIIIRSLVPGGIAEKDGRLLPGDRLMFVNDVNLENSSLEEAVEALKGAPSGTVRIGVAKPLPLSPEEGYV

Another experiment has as its target T7, NHERF3_1, Q5T2W1.
T7 sequence (Q5T2W1 4-100, limits assumed, looked up): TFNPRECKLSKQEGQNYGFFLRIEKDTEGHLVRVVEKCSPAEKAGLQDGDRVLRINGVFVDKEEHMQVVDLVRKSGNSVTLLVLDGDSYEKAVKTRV

For a further experiment, the target named is T8, SHANK1, Q9Y566.
T8 sequence (Q9Y566 658-767, limits assumed, looked up): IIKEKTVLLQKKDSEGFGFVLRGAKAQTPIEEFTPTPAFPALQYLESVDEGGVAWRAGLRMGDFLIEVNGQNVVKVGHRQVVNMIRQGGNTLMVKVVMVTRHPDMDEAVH

A further experiment has as its target T9, SNTB1, Q13884.
T9 sequence (Q13884 107-205, limits assumed, looked up): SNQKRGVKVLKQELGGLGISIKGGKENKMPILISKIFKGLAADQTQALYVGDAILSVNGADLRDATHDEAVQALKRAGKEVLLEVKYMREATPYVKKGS

The next experiment has as its target T10, SNTG1, Q9NSN8.
T10 sequence (Q9NSN8 52-150, limits assumed, looked up): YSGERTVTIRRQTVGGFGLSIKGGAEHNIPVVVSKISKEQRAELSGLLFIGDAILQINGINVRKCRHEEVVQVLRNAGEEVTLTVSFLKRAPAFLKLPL

A further experiment has as its target T11, SNTG2, Q9NY99.
T11 sequence (Q9NY99 68-166, limits assumed, looked up): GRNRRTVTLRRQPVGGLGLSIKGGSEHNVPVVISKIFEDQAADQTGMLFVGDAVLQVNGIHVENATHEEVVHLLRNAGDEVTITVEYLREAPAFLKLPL

The next experiment addresses T12, TJP3_3, O95049.
T12 sequence (O95049 375-456, limits assumed, looked up): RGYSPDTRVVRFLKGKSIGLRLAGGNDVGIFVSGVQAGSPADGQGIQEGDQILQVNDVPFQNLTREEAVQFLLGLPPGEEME

[1] abbreviates: plain residues with an end cap or a label only (N-terminal biotin on a linker: ado-ado).
[2] abbreviates: modified: phospho on T at position -2 from the C-terminal residue.
Setting [3] is: modified: phospho on T at position -1 from the C-terminal residue.

Sequence of GRIP2_7, Q9C0E4 (Q9C0E4 934-1023): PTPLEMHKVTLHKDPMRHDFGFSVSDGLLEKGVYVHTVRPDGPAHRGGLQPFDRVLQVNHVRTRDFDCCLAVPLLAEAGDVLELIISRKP
Sequence of GRIP2_6, Q9C0E4 (Q9C0E4 648-740): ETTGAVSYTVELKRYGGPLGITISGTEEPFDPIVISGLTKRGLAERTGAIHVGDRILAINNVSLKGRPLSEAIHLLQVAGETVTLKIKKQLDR
Sequence of GRID2IP_2, A4D2P6 (A4D2P6 272-370): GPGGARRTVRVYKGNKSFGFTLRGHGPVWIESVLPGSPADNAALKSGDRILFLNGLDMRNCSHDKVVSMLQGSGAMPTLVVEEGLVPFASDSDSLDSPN
Sequence of Inadl_8, Q8NI35 (Q8NI35 1425-1530): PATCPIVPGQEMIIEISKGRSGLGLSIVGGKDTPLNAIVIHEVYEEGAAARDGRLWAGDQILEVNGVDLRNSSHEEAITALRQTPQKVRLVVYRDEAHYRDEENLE
Sequence of AHNAK1, Q09666 (Q09666 4-100): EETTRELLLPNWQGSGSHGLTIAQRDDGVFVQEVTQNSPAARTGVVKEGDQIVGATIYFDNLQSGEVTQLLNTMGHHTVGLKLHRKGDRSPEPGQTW
Sequence of MAGI1_1, Q96QZ7 (Q96QZ7 1-106): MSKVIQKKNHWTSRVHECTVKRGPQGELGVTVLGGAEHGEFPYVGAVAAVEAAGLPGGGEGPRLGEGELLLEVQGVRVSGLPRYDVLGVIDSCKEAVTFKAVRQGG
Sequence of PARD3_3, Q8TEW0 (Q8TEW0 582-685): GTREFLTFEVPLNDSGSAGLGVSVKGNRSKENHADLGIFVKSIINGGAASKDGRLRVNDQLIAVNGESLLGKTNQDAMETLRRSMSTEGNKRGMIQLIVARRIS
Sequence of Inadl_9, Q8NI35 (Q8NI35 1530-1615): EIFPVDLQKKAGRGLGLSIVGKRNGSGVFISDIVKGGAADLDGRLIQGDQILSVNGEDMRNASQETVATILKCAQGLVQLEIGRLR
Sequence of GORASP1, Q9BQQ3 (Q9BQQ3 1-208): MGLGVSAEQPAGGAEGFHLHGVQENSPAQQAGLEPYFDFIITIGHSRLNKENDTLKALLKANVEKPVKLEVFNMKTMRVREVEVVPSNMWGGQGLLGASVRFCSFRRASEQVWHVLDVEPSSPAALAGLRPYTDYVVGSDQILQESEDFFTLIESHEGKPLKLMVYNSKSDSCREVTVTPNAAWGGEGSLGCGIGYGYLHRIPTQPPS
Sequence of DLG1_3, Q12959 (Q12959 457-571): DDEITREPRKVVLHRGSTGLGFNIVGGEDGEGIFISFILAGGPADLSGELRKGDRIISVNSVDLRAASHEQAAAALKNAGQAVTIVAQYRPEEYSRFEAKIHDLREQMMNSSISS

For SMLNRRTTPV [CACNG4, Q9UBN1], the negative logarithm of the Kd (pKd) entry with AHNAK1, Q09666 (setting [1]) was “below the threshold”; with APBA1_1, Q02410 (setting [1]) it was “below the threshold”; in the experiment with APBA2_1, Q99767 (setting [1]), “below the threshold”; with APBA3_1, O96018 (setting [1]), “below the threshold”; with DLG1_3, Q12959 (setting [1]), 4.39; with DLG2_3, Q15700 (setting [1]) it was 4.89. In addition, the pKd entry was “below the threshold” in the experiment with GOPC, Q9HD26 (setting [1]); “below the threshold” in the experiment with GORASP1, Q9BQQ3 (setting [1]); 3.92 with GRID2IP_2, A4D2P6 (setting [1]); “below the threshold” in the experiment with GRIP1_2, Q9Y3R0 (setting [1]); “below the threshold” in the experiment with GRIP1_5, Q9Y3R0 (setting [1]); “below the threshold” in the experiment with GRIP2_6, Q9C0E4 (setting [1]). Further, the pKd result was “below the threshold” with GRIP2_7, Q9C0E4 (setting [1]); 4.29 with Inadl_8, Q8NI35 (setting [1]); “below the threshold” in the experiment with Inadl_9, Q8NI35 (setting [1]); “below the threshold” with MAGI1_1, Q96QZ7 (setting [1]); “below the threshold” with MPDZ_5, O75970 (setting [1]); “below the threshold” in the experiment with NHERF3_1, Q5T2W1 (setting [1]). Besides, the pKd entry with PARD3_3, Q8TEW0 (setting [1]) is “below the threshold”; with SHANK1, Q9Y566 (setting [1]) it was “below the threshold”; with SNTB1, Q13884 (setting [1]), 4.07; with SNTG1, Q9NSN8 (setting [1]), “below the threshold”; in the experiment with SNTG2, Q9NY99 (setting [1]) it was “below the threshold”; with TJP3_3, O95049 (setting [1]), “below the threshold”.

Turning to RRVRKLPSTTL [RPS6KA1_-2P, Q15418], the negative-log Kd (pKd) result in the experiment with AHNAK1, Q09666 (setting [2]) is given as “below the threshold”; with APBA1_1, Q02410 (setting [2]), “below the threshold”; with APBA2_1, Q99767 (setting [2]), “below the threshold”; with APBA3_1, O96018 (setting [2]), “below the threshold”; in the experiment with DLG1_3, Q12959 (setting [2]), “below the threshold”; with DLG2_3, Q15700 (setting [2]), “below the threshold”. The pKd result was “below the threshold” with GOPC, Q9HD26 (setting [2]); 3.75 with GORASP1, Q9BQQ3 (setting [2]); “below the threshold” with GRID2IP_2, A4D2P6 (setting [2]); 3.52 with GRIP1_2, Q9Y3R0 (setting [2]); “below the threshold” in the experiment with GRIP1_5, Q9Y3R0 (setting [2]); “below the threshold” with GRIP2_6, Q9C0E4 (setting [2]). Besides, the negative logarithm of the Kd (pKd) entry with GRIP2_7, Q9C0E4 (setting [2]) was “below the threshold”; with Inadl_8, Q8NI35 (setting [2]) it was “below the threshold”; with Inadl_9, Q8NI35 (setting [2]), “below the threshold”; with MAGI1_1, Q96QZ7 (setting [2]), “below the threshold”; with MPDZ_5, O75970 (setting [2]), “below the threshold”; with NHERF3_1, Q5T2W1 (setting [2]) it was “below the threshold”. The negative-log Kd (pKd) entry with PARD3_3, Q8TEW0 (setting [2]) is listed as “below the threshold”; in the experiment with SHANK1, Q9Y566 (setting [2]) it was “below the threshold”; in the experiment with SNTB1, Q13884 (setting [2]), “below the threshold”; with SNTG1, Q9NSN8 (setting [2]) it was “below the threshold”; in the experiment with SNTG2, Q9NY99 (setting [2]), “below the threshold”; with TJP3_3, O95049 (setting [2]), “below the threshold”.

For LSEFKAMDSF [CTNNA2, P26232], the negative-log Kd (pKd) result in the experiment with AHNAK1, Q09666 (setting [1]) is “below the threshold”; in the experiment with APBA1_1, Q02410 (setting [1]), “below the threshold”; with APBA2_1, Q99767 (setting [1]), “below the threshold”; in the experiment with APBA3_1, O96018 (setting [1]), “below the threshold”; with DLG1_3, Q12959 (setting [1]) it was “below the threshold”; with DLG2_3, Q15700 (setting [1]), 3.72. The negative-log Kd (pKd) result in the experiment with GOPC, Q9HD26 (setting [1]) was “below the threshold”; with GORASP1, Q9BQQ3 (setting [1]) it was “below the threshold”; with GRID2IP_2, A4D2P6 (setting [1]), “below the threshold”; with GRIP1_2, Q9Y3R0 (setting [1]), “below the threshold”; in the experiment with GRIP1_5, Q9Y3R0 (setting [1]), “below the threshold”; with GRIP2_6, Q9C0E4 (setting [1]), “below the threshold”. The negative-log Kd (pKd) entry with GRIP2_7, Q9C0E4 (setting [1]) is given as “below the threshold”; with Inadl_8, Q8NI35 (setting [1]), “below the threshold”; with Inadl_9, Q8NI35 (setting [1]), “below the threshold”; with MAGI1_1, Q96QZ7 (setting [1]), “below the threshold”; with MPDZ_5, O75970 (setting [1]), “below the threshold”; with NHERF3_1, Q5T2W1 (setting [1]), “below the threshold”. Also, the pKd result is listed as “below the threshold” with PARD3_3, Q8TEW0 (setting [1]); “below the threshold” with SHANK1, Q9Y566 (setting [1]); “below the threshold” with SNTB1, Q13884 (setting [1]); “below the threshold” in the experiment with SNTG1, Q9NSN8 (setting [1]); “below the threshold” in the experiment with SNTG2, Q9NY99 (setting [1]); “below the threshold” with TJP3_3, O95049 (setting [1]).

Regarding RRVRKLPSTTL [RPS6KA1_-1P, Q15418], the pKd in the experiment with AHNAK1, Q09666 (setting [3]) was 3.52; with APBA1_1, Q02410 (setting [3]), 3.56; with APBA2_1, Q99767 (setting [3]), “below the threshold”; in the experiment with APBA3_1, O96018 (setting [3]) it was “below the threshold”; with DLG1_3, Q12959 (setting [3]) it was 3.7; with DLG2_3, Q15700 (setting [3]) it was 3.74. The negative logarithm of the Kd (pKd) in the experiment with GOPC, Q9HD26 (setting [3]) is 4.66; in the experiment with GORASP1, Q9BQQ3 (setting [3]) it was 3.6; in the experiment with GRID2IP_2, A4D2P6 (setting [3]), 4.22; with GRIP1_2, Q9Y3R0 (setting [3]), “below the threshold”; in the experiment with GRIP1_5, Q9Y3R0 (setting [3]), “below the threshold”; with GRIP2_6, Q9C0E4 (setting [3]), “below the threshold”. The negative-log Kd (pKd) entry in the experiment with GRIP2_7, Q9C0E4 (setting [3]) is “below the threshold”; in the experiment with Inadl_8, Q8NI35 (setting [3]), 3.57; in the experiment with Inadl_9, Q8NI35 (setting [3]), “below the threshold”; in the experiment with MAGI1_1, Q96QZ7 (setting [3]), 3.33; in the experiment with MPDZ_5, O75970 (setting [3]), 3.5; with NHERF3_1, Q5T2W1 (setting [3]), 4.2. For the same molecule, the pKd with PARD3_3, Q8TEW0 (setting [3]) is 3.84; in the experiment with SHANK1, Q9Y566 (setting [3]) it was 4.06; with SNTB1, Q13884 (setting [3]) it was 3.91; with SNTG1, Q9NSN8 (setting [3]), 3.73; in the experiment with SNTG2, Q9NY99 (setting [3]), 4.16; in the experiment with TJP3_3, O95049 (setting [3]), “below the threshold”.

For orientation: pKd means the negative decadic logarithm of the Kd, by convention in mol/L.
